From patent publication US20250250297A1, “CO-ASSEMBLED PEPTIDE GRANULES FOR INTRACELLULAR PROTEIN DELIVERY” (University of Florida Research Foundation, Incorporated, priority 2022, published 2025)
One block for each molecule: values may come before it. No end group written: not given here.

B2: mCATCH(+) peptide, Ac-QQKPKPKPKQQ-Am (peptide)
peptide: Ac-QQKPKPKPKQQ-NH2
notes: Proline residues replace the phenylalanine residues of CATCH(+); also called mutant of CATCH(+)

Key:
[1] = aqueous media; cited from earlier work
[2] = system: cells; test: Delivery of granules comprising three co-assembling peptides; FACS sorting and NanoLuciferase activity; format: cell-based; details: for delivery into cells via granules of three co-assembling peptides: granules with CATCH(6+) and two distinct CATCH(6−) fusion peptides
Method: Therein, the ability of cells to take up granules comprising three co-assembling peptides (e.g., a CATCH(6+) and two distinct CATCH(6−) fusion peptides comprising different fluorescent or colorimetric markers) was tested. […] Subsequent fluorescent-activated cell sorting (FACS) procedures were used to sort GFP-positive cells.

[3] = Protein incorporation into macroscopic hydrogels (GFP retention under excess 1×PBS); format: physicochemical
Method: Macroscopic Hydrogel Formation. A 12 mM stock solution of CATCH(−) was prepared by dissolving dry peptide in 1×PBS and adjusting the pH to ˜7.6 with ammonium bicarbonate (Fisher). A 12 mM stock solution of CATCH(+) was prepared by dissolving dry peptide in 1×PBS and adjusting the pH to ˜7.2 with hydrochloric acid (0.5 N Fisher). CATCH peptide stock solutions were combined at a 1:1 (v/v) ratio in a 0.2 mL glass vial (Thermo), and the vial was gently swirled for 2 min until the hydrogel formed. The hydrogel was stained with red food coloring to aid visualization. Hydrogel images were recorded using a digital still camera.
Protein Incorporation into Macroscopic Hydrogels. […] Immediately after hydrogel formation, fluorescence was visualized by placing the glass vials on a SafeImager 2.0 transilluminator (Invitrogen) and recording images with a digital still camera. […] At various time points, fluorescence in the buffer supernatant was visualized by placing the glass vials on a SafeImager 2.0 transilluminator (Invitrogen) and recording images with a digital still camera. At the endpoint, buffer supernatant was carefully removed by decanting and fluorescence was visualized by placing the glass vials on a SafeImager 2.0 transilluminator (Invitrogen) and recording images with a digital still camera.

[4] = system: cells in vitro; test: Granule uptake compared to cell-penetrating peptide (L17E and Pep-1) uptake; CATCH(6+) titration; cell count; format: cell-based
[5] = Granule formation with molar excess of positive peptide: effect of concentration, ion content and pH; format: physicochemical; details: molar excess of CATCH(6+) relative to CATCH(6−)-GFP
Method: This example describes the effect on granule formation of using positive peptides in molar excess relative to negative peptides. Samples comprising molar excess of positive peptide (e.g., CATCH(6+)) relative to negative peptide (e.g., CATCH(6−)-GFP) were prepared and granule formation was measured after peptide co-assembly (see FIG. 61). […] Therein, the effect of sample ion content on granule formation was tested. Samples comprised 2 mM CATCH(6+) or CATCH(4+) and 30 μM CATCH(6−)-GFP.

[6] = target: the molecule itself; test: TEM; circular dichroism also showed predominantly random coil when incubated alone
[7] = target: T1, mCATCH(-) peptide, Ac-EQEPEPEPEQE-Am; test: ThT fluorimetry, equimolar mixture in 1x PBS
T1 construct: Proline residues replace the phenylalanine residues of CATCH(-); also called mutant of CATCH(-)
T1 peptide: Ac-EQEPEPEPEQE-NH2
Method: (§1) Thioflavin T (ThT) Assay. A ThT stock solution containing 0.8 mg/mL of thioflavin T (Acros) in 1× phosphate-buffered saline (PBS) (137 mM NaCl, 2.7 mM KCl, 10 mM Na₂HPO₄ and 1.8 mM KH₂PO₄, pH 7.4) was filtered through a 0.22 μm syringe filter (Millex), and further diluted 1:10 with 1×PBS to create a working solution. Peptide samples were mixed with the ThT working solution at a 1:10 (v/v) ratio, added to a black 96-well plate (Corning), and analyzed with a Molecular Devices SpectraMax M3 spectrophotometer (excitation 450, emission 482 nm). All samples were run in triplicate, with the mean and standard deviation of these samples reported.

[8] = target: T1, mCATCH(-) peptide, Ac-EQEPEPEPEQE-Am; test: ThT fluorimetry, kinetic analysis
[9] = target: B2; test: ThT fluorimetry, equimolar mixture in 1x PBS
Method: as §1

Molecule: Ac-QQKFQFQFEQQ-Am (Ac-QQKFQFQFEQQ-NH2) [Q11]
concentration at which peptide self-assembles into β-sheet nanofibers [1]: ~10 µM

Molecule: CATCH(6−)-NanoLuciferase: CATCH(6−) fusion with NanoLuciferase (EQEFEFEFEQE; not fully specified (C-terminus); also: fusion with NanoLuciferase, not in chain)
NanoLuciferase activity in sorted GFP-positive cells ([2]; after FACS, granules with CATCH(6−)-GFP and CATCH(6−)-NanoLuciferase): high levels | delivery into cells via granules of three co-assembling peptides [2]: successfully delivered into cells

Molecule: CATCH(6−)-mRuby: CATCH(6−) fusion peptide with fluorescent marker mRuby (EQEFEFEFEQE; not fully specified (C-terminus); also: fusion with mRuby, not in chain)
delivery into cells via granules of three co-assembling peptides [2]: delivered into cells

Molecule: CATCH(−)GFP: recombinant fusion of CATCH(−) and superfolder green fluorescent protein (GFP)
fluorescence of CATCH hydrogels after incubation under volumetric excess of 1×PBS ([3]; 48 h, hydrogel from 12 mM CATCH(+) and CATCH(−)): retained their fluorescence | GFP in the buffer layer over hydrogels ([3]; up to 48 h under excess 1×PBS): no GFP was detected | delivery into cells via granules of three co-assembling peptides [2]: delivered into cells

Molecule: KQKFKFKFKQK [CATCH(6+)]
effect of titration of peptide concentration on number of transduced cells [4]: enabled control on the number of transduced cells | granule size by scanning electron microscopy at higher positive peptide concentrations [5]: larger granules

binding result [7]: no binding
B1: CATCH(+) peptide, Ac-QQKFKFKFKQQ-Am (peptide)
peptide: Ac-QQKFKFKFKQQ-NH2
notes: Synthetic cationic variant of Q11; also called CATCH(4+); CATCH (4+)
binding result [6]: no binding

Molecule: B2
binding result [8]: no binding

binding result [9]: no binding
B3: CATCH(-) peptide, Ac-EQEFEFEFEQE-Am (peptide)
peptide: Ac-EQEFEFEFEQE-NH2
notes: Synthetic anionic variant of Q11; also called CATCH(6-); CATCH (6-)
binding result [6]: no binding
